In patent US20070190056A1:

Target: recombinant myostatin
Test: cell-based or functional assay

macrophage migration towards ZAMS medium (chemotaxis assay, FIG. 9): 20 fold
Substance: myostatin antagonist 350 (amino acids 267-350 of bovine myostatin) (from UniProt O18836 267-350) (peptide)
